{
  "source": "patent US20100272709A1",
  "about": "(GENERAL HOSPITAL, published 2010)",
  "key": {"[1]": {"target": "wild type dynamin (dynWT; recombinant dynamin 1) (UniProt Q05193)"}, "[2]": {"target": "mouse monoclonal anti-dynamin GTPase antibody (Stressgene), recognizes the N-terminal GTPase domain", "assay": "FLIM/FRET in fixed podocytes; lifetime of donor GTPase-a488 with acceptor DAM-a568; + control"}, "[3]": {"target": "mouse monoclonal anti-dynamin GTPase antibody (Stressgene), recognizes the N-terminal GTPase domain", "assay": "FLIM/FRET in fixed podocytes; lifetime of donor GTPase-Alexa488 with acceptor DAM-Alexa568; + control"}, "[4]": {"target": "dynK44A (dominant-negative dynamin mutant that cannot bind GTP) (UniProt Q05193)", "assay": "FLIM/FRET in fixed podocytes treated with cytochalasin D; donor GTPase-a488, acceptor Hudy1-a568; self-assembly"}, "[5]": {"target": "dynK44A (dominant-negative dynamin mutant that cannot bind GTP) (UniProt Q05193)", "assay": "FLIM/FRET in fixed podocytes; donor GTPase-a488, acceptor Hudy1-a568; self-assembly"}, "[6]": {"target": "mouse monoclonal anti-dynamin GTPase antibody (Stressgene), recognizes the N-terminal GTPase domain", "assay": "FLIM/FRET in fixed podocytes; lifetime of donor GTPase-Alexa488 with acceptor GAR-Alexa568; - control"}, "[7]": {"target": "T1, EYFP-dynK44A fusion (UniProt Q05193)", "T1 sequence (looked up)": "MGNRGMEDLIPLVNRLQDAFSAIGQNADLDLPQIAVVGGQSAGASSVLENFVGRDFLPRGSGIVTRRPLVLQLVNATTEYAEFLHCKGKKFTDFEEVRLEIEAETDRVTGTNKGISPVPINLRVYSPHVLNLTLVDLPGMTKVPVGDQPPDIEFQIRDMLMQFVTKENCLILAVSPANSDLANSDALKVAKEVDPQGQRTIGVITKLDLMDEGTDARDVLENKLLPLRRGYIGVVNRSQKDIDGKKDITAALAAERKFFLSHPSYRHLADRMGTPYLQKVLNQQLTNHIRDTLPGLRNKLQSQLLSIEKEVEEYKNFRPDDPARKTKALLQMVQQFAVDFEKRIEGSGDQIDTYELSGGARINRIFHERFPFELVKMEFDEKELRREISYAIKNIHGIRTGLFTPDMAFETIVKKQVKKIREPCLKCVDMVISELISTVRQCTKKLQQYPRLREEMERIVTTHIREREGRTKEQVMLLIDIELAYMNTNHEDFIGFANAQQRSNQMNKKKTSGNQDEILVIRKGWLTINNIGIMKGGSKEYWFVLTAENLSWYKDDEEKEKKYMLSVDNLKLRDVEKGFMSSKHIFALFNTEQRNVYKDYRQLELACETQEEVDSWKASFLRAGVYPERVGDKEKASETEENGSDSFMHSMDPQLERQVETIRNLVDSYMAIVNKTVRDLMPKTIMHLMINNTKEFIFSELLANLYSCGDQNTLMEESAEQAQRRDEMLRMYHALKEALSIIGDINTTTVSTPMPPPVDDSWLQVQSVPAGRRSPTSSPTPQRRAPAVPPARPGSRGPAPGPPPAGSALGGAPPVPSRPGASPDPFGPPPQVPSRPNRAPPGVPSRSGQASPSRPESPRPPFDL", "assay": "FLIM/FRET in live COS cells; lifetime of the ECFP donor; self-assembly"}, "[8]": {"target": "dynI690K (assembly incompetent dynamin mutant) (UniProt Q05193)", "assay": "FLIM/FRET in fixed podocytes treated with cytochalasin D; donor GTPase-a488, acceptor Hudy1-a568; self-assembly"}, "[9]": {"target": "dynI690K (assembly incompetent dynamin mutant) (UniProt Q05193)", "assay": "FLIM/FRET in fixed podocytes; donor GTPase-a488, acceptor Hudy1-a568; self-assembly"}, "[10]": {"target": "T2, dynR725A (GTP-hydrolysis impaired dynamin mutant)", "T2 chain": "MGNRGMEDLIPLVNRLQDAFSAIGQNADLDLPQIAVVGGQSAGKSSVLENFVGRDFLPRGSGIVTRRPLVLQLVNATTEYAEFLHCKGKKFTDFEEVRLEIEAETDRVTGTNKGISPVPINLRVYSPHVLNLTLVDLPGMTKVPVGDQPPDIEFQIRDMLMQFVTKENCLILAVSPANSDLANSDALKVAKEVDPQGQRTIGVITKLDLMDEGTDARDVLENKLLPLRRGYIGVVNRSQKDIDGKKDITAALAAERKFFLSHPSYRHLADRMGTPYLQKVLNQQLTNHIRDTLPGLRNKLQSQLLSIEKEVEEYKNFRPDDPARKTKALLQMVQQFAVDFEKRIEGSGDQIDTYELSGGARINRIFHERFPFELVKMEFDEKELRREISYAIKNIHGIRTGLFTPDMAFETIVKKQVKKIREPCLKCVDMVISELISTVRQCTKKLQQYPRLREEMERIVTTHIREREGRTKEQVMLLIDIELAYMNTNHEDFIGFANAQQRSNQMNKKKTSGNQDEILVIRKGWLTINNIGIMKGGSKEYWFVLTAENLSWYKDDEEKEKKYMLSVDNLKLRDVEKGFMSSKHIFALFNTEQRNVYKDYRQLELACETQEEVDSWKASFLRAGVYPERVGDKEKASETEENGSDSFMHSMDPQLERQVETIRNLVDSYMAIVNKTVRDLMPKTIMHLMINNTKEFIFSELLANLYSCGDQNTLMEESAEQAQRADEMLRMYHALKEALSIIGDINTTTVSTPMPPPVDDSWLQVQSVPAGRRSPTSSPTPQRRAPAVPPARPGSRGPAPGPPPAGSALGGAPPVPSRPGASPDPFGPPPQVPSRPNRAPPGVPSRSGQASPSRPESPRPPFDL"}, "[11]": {"target": "dynK44A (dominant-negative dynamin mutant that cannot bind GTP), Q05193"}, "[12]": {"target": "wild type dynamin (dynWT; recombinant dynamin 1), Q05193"}},
  "data": [
    {"molecule": "purified cathepsin L (commercial)", "values": [
      {"measurement": "cleavage of purified dynamin by CatL at pH 7.0 with GTP, Western blot", "setting": "[1]", "value": "addition of GTP resulted in the generation of a prominent proteolytic fragment with a molecular weight of -40 kD (p40)"},
      {"measurement": "cleavage of purified dynamin by CatL at pH 7.0 with GTPγS, Western blot", "setting": "[1]", "value": "addition of GTPγS, (non-hydrolysable GTP analog) did not stimulate cleavage by CatL"},
      {"measurement": "cleavage of purified dynamin by CatL at pH 7.0 without nucleotide, Western blot", "setting": "[1]", "value": "CatL did not cause significant cleavage of purified dynamin at pH 7.0"},
      {"measurement": "cleavage of recombinant dynamin 1 by purified cathepsin L at pH 7.0 with GTP, Western blot with GTPase antibody", "setting": "[1]", "value": "addition of GTP in the assay resulted in significant cleavage of dynamin by cathepsin L"},
      {"measurement": "cleavage of recombinant dynamin 1 by purified cathepsin L at pH 7.0 with GTPγS", "setting": "[1]", "value": "Addition of GTPγS, non-hydrolyzable GTP homolog abolished dynamin cleavage by cathepsin L"},
      {"measurement": "cleavage of recombinant dynamin by CatL at pH 5.0 and 6.0, silver staining", "setting": "[1]", "value": "At pH 5.0 and 6.0, CatL was highly reactive towards recombinant dynamin, even in the absence of GTP"},
      {"measurement": "cleavage of recombinant dynamin by CatL at pH 5.0 and 6.0 with GTPγS, silver staining", "setting": "[1]", "value": "this proteolysis was completely inhibited by addition of GTP7S"},
      {"measurement": "cleavage of recombinant dynamin by cathepsin L at pH 5.0 and 6.0", "setting": "[1]", "value": "at pH 5.0 and 6.0 cathepsin L potently proteolyzed recombinant dynamin"}
    ]},
    {"molecule": "cathepsin B (CatB, Sigma)", "values": [
      {"measurement": "cleavage of purified dynamin by CatB, Western blot", "setting": "[1]", "value": "incubation of dynamin with CatB generated p55 in a nucleotide-independent manner"}
    ]},
    {"molecule": "DAM-Alexa568 (secondary antibody used as positive control acceptor)", "values": [
      {"measurement": "Mean Lifetime (γ1)", "setting": "[2]", "value": 1020},
      {"measurement": "Mean Lifetime (γ1)", "setting": "[3]", "value": 1020}
    ]},
    {"molecule": "dynK44A (dominant-negative dynamin mutant that cannot bind GTP) (from UniProt Q05193 1-864) (enzyme)", "values": [
      {"measurement": "Mean Lifetime (γ1)", "setting": "[4]", "value": 2310, "unit": "ps"},
      {"measurement": "Mean Lifetime (γ1)", "setting": "[5]", "value": 2520, "unit": "ps"}
    ]},
    {"molecule": "goat anti-rabbit-alexa568 (GARalexa568), negative control acceptor (antibody)", "values": [
      {"measurement": "Mean Lifetime (γ1)", "setting": "[6]", "value": 2420}
    ]},
    {"molecule": "ECFP-dynK44A fusion (protein, UniProt Q05193 1-864, looked up, not shown: large carriers) MGNRGMEDLIPLVNRLQDAFSAIGQNADLDLPQIAVVGGQSAGASSVLENFVGRDFLPRGSGIVTRRPLVLQLVNATTEYAEFLHCKGKKFTDFEEVRLEIEAETDRVTGTNKGISPVPINLRVYSPHVLNLTLVDLPGMTKVPVGDQPPDIEFQIRDMLMQFVTKENCLILAVSPANSDLANSDALKVAKEVDPQGQRTIGVITKLDLMDEGTDARDVLENKLLPLRRGYIGVVNRSQKDIDGKKDITAALAAERKFFLSHPSYRHLADRMGTPYLQKVLNQQLTNHIRDTLPGLRNKLQSQLLSIEKEVEEYKNFRPDDPARKTKALLQMVQQFAVDFEKRIEGSGDQIDTYELSGGARINRIFHERFPFELVKMEFDEKELRREISYAIKNIHGIRTGLFTPDMAFETIVKKQVKKIREPCLKCVDMVISELISTVRQCTKKLQQYPRLREEMERIVTTHIREREGRTKEQVMLLIDIELAYMNTNHEDFIGFANAQQRSNQMNKKKTSGNQDEILVIRKGWLTINNIGIMKGGSKEYWFVLTAENLSWYKDDEEKEKKYMLSVDNLKLRDVEKGFMSSKHIFALFNTEQRNVYKDYRQLELACETQEEVDSWKASFLRAGVYPERVGDKEKASETEENGSDSFMHSMDPQLERQVETIRNLVDSYMAIVNKTVRDLMPKTIMHLMINNTKEFIFSELLANLYSCGDQNTLMEESAEQAQRRDEMLRMYHALKEALSIIGDINTTTVSTPMPPPVDDSWLQVQSVPAGRRSPTSSPTPQRRAPAVPPARPGSRGPAPGPPPAGSALGGAPPVPSRPGASPDPFGPPPQVPSRPNRAPPGVPSRSGQASPSRPESPRPPFDL", "values": [
      {"measurement": "Mean Lifetime (γ1) ps", "setting": "[7]", "value": 1860, "unit": "ps"}
    ]},
    {"molecule": "dynI690K (assembly incompetent dynamin mutant) (enzyme, UniProt Q05193 1-864, looked up) MGNRGMEDLIPLVNRLQDAFSAIGQNADLDLPQIAVVGGQSAGKSSVLENFVGRDFLPRGSGIVTRRPLVLQLVNATTEYAEFLHCKGKKFTDFEEVRLEIEAETDRVTGTNKGISPVPINLRVYSPHVLNLTLVDLPGMTKVPVGDQPPDIEFQIRDMLMQFVTKENCLILAVSPANSDLANSDALKVAKEVDPQGQRTIGVITKLDLMDEGTDARDVLENKLLPLRRGYIGVVNRSQKDIDGKKDITAALAAERKFFLSHPSYRHLADRMGTPYLQKVLNQQLTNHIRDTLPGLRNKLQSQLLSIEKEVEEYKNFRPDDPARKTKALLQMVQQFAVDFEKRIEGSGDQIDTYELSGGARINRIFHERFPFELVKMEFDEKELRREISYAIKNIHGIRTGLFTPDMAFETIVKKQVKKIREPCLKCVDMVISELISTVRQCTKKLQQYPRLREEMERIVTTHIREREGRTKEQVMLLIDIELAYMNTNHEDFIGFANAQQRSNQMNKKKTSGNQDEILVIRKGWLTINNIGIMKGGSKEYWFVLTAENLSWYKDDEEKEKKYMLSVDNLKLRDVEKGFMSSKHIFALFNTEQRNVYKDYRQLELACETQEEVDSWKASFLRAGVYPERVGDKEKASETEENGSDSFMHSMDPQLERQVETIRNLVDSYMAIVNKTVRDLMPKTIMHLMKNNTKEFIFSELLANLYSCGDQNTLMEESAEQAQRRDEMLRMYHALKEALSIIGDINTTTVSTPMPPPVDDSWLQVQSVPAGRRSPTSSPTPQRRAPAVPPARPGSRGPAPGPPPAGSALGGAPPVPSRPGASPDPFGPPPQVPSRPNRAPPGVPSRSGQASPSRPESPRPPFDL", "values": [
      {"measurement": "Mean Lifetime (γ1)", "setting": "[8]", "value": 2430, "unit": "ps"},
      {"measurement": "Mean Lifetime (γ1)", "setting": "[9]", "value": 2360, "unit": "ps"}
    ]},
    {"molecule": "endogenous mouse cathepsin L induced by LPS in podocytes and kidney (34 kD cytoplasmic short form) (protein) MRMIQLHNGEYSNGQHGFSMEMNAFGDMTNEEFRQVVNGYRHQKHKKGRLFQEPLMLKIPKSVDWREKGCVTPVKNQGQCGSCWAFSASGCLEGQMFLKTGKLISLSEQNLVDCSHAQGNQGCNGGLMDFAFQYIKENGGLDSEESYPYEAKDGSCKYRAEFAVANDTGFVDIPQQEKALMKAVATVGPISVAMDASHPSLQFYSSGIYYEPNCSSKNLDHGVLLVGYGYEGTDSNKNKYWLVKNSWGSEWGMEGYIKIAKDRDNHCGLATAASYPVVN", "values": [
      {"measurement": "p40 proteolytic fragment in cytosol of LPS-treated podocytes expressing dynR725A, Western blot", "setting": "[10]", "value": "LPS treatment of podocytes expressing dynR725A completely abolished presence of the p40"},
      {"measurement": "p40 proteolytic fragment in cytosol of podocytes expressing dynR725A before LPS, Western blot", "setting": "[10]", "value": "significant amount of p40 was present in cells expressing dynR725A prior to LPS treatment"},
      {"measurement": "p40 proteolytic fragment in cytosol of LPS-treated podocytes expressing dynK44A, Western blot", "setting": "[11]", "value": "LPS treatment of podocytes expressing dynK44A, enzyme that cannot bind GTP, did not result in detectable levels of p40"},
      {"measurement": "p40 proteolytic fragment in cytosol of LPS-treated podocytes expressing dynWT, Western blot", "setting": "[12]", "value": "Addition of specific cathepsin L inhibitor (Z-FF-FMK, Calbiochem), to the tissue cultured podocytes treated with LPS resulted specifically in the loss of p40"}
    ]}
  ]
}
